Measured values: patent US20110086029A1 (University of California, published 2011)

T1: murine N-Cadherin (murine, UniProt P15116 160-724, limits assumed)
T1 construct: The assay used to show cross-reactivity is not described
T1 sequence (looked up): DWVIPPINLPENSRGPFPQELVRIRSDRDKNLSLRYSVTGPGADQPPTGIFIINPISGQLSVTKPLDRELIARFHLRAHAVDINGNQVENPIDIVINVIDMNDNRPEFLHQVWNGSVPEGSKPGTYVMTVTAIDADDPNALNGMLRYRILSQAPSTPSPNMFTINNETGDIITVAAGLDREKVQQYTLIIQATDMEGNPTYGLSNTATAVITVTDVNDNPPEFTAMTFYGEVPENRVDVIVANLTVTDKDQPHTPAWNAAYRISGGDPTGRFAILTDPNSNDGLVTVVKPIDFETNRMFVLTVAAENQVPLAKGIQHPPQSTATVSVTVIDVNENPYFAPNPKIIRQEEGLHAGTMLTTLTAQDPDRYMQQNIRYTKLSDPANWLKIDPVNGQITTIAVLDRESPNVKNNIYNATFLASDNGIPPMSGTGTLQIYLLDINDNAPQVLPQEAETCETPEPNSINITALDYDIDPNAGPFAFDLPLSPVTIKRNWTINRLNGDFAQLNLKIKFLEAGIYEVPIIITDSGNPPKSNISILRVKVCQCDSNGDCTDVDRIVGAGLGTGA


Target: T1, murine N-Cadherin
Test: assay not described

Row | binding result | Binder
1 | binds | N-Cadherin antibody EC4 (monoclonal antibody produced by mouse hybridoma ATCC Accession No. PTA-9388) (antibody, V domains shown, Mouse hybridoma monoclonal antibody) VH: QVKLQQSGAELARPGASVKLSCKASGYTFTSYWMQWVKQRPGQGLEWIGAIYPGDGETTYTQKFKGKATLTADKSSSTAYMQLSSLASEDSAVYYCAKGDGYWAMDYWGQGTSVTVSS VL: DIVMTQTPLSLPVSLGDQASISCRSSQSLVHSNGNTYLHWYLQKPGQSPKLLIYKVSNRFSGVPDRFSGSGSGTDFTLKISRVEAEDLGVYFCSQSTHVPLTFGAGTKLELK
2 | binds | N-Cadherin antibody 1H7 (monoclonal antibody produced by mouse hybridoma ATCC Accession No. PTA-9387) (antibody, V domains shown, Mouse hybridoma monoclonal antibody) VH: QVQLQQSGAELVKPGASVKLSCKASGFTFTDYLIQWVKQRSGQGLEWIGWFYPGSGSIKYNEKFKDKATLTADKSSNTVYMEISRLTSEDSAVYFCARRGDWGGFFDYWGQGTTLTVSS VL: DIVLTQSPAIMSASLGERVTMTCTASSSVSSSYLHWYQQKPGSSPKLWIFSTSNLASGVPDRFSGSGSGTSYSLTINSMEAEDAATYYCHQYHRSLTFGAGTKLELK
